# In article PMC7736850, “Hemistepsin A suppresses colorectal cancer growth through inhibiting pyruvate dehydrogenase kinase activity” (Scientific Reports, 2020):
# Tests used:
# [1] = target: T1, pyruvate dehydrogenase kinase (PDK) 1 (Homo sapiens, UniProt Q15118); experiment: isothermal titration calorimetry (ITC); assay type: binding
# T1 construct: gene PDK1
# [2] = target: Pyruvate dehydrogenase kinase 1 (PDK1) protein (UniProt Q15118); experiment: ITC; PDK1 protein with the lipoamide-binding domains of PDH-E2 (L1, L2), in the presence of hemistepsin A (HsA); conditions not told in the main text
# [3] = target: Pyruvate dehydrogenase kinase 1 (PDK1) protein (UniProt Q15118); experiment: ITC; PDK1 protein with the lipoamide-binding domains of PDH-E2 (L1, L2), without HsA; conditions not told in the main text
# Sequence of Pyruvate dehydrogenase kinase 1 (PDK1) protein (Q15118 29-436): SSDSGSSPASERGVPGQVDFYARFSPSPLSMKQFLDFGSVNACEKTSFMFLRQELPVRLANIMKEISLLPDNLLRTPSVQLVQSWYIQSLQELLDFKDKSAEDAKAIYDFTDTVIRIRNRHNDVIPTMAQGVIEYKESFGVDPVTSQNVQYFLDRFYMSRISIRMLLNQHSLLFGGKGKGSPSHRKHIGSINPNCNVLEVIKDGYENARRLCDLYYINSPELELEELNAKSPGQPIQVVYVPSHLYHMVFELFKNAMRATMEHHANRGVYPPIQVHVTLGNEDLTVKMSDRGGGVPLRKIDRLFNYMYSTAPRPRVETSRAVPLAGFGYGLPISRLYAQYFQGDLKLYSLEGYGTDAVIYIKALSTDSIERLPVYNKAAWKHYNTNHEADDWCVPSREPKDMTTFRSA
# T1 sequence (Q15118 29-436): as above
Kd [1],Kd [2],Kd [3],Compound
22 µM,–,–,"C=C(CO)C(=O)OC1C2C(=C)C(=O)OC2CC(=C)C2CC(O)C(=C)C21 (centres unmarked) [HsA, Hemistepsin A]"
–,43.1 µM,41.1 µM,L1 lipoamide-binding domain of the PDH complex E2 subunit (PDH-E2) (domain or fragment)
–,41 µM,30 µM,L2 lipoamide-binding domain of the PDH complex E2 subunit (PDH-E2) (domain or fragment)
